# Measurements: US20120328623A1 (Kyowa Kirin, published 2012)
# B1: anti-human erbB3 monoclonal antibody 12511 (antibody, V domains shown)
# VH: QIQLQQSGPELVNPGASVKISCKPSGYTFTDYYINWVKQRPGQGLEWIGWIHPGGGYTKYNEKFRGKATVTVDTSANTVYMQLSSLTSDDSAVYFCARRDYGDYGFAYWGQGTLVTVSA
# VL: DIVLTQSPASLAVSLGQRATISCRVSESVDSYGNSFMHWYQQKPGQPPKLLIYRASNLESGIPDRFSGSVSRTDFTLTINPVEPDDVATYYCQQTNEDPPTFGGGTKLEIK
# Biological target: T1, GST fusion protein wherein the extracellular domain of mouse erbB3 is fused to GST (mouse, UniProt Q61526 20-641)
# T1 construct: also called merbB3-GST; merbB3; not shown: glutathione S-transferase (GST)
# Experiment: binding ELISA, GST fusion captured by anti-GST
# Experimental: anti-Glutathione-Transferase-Schistsoma-japonicum (Goat) (manufactured by Rockland Immunochemicals Inc., ca. No. 16979) (hereinbelow, described as “anti-GST”) prepared at 1 μg/mL by using a 50 mM carbonate buffer (pH 9) (hereinbelow, described as a “coating buffer”) was added to Maxisorp plate (NUNC; ca. No. 442404) at 50 μL/well and immobilized by incubation at 37° C. for an hour (or 4° C., ON).
# After the buffer was discarded, a blocking reagent (SuperBlock® Blocking Buffer, manufactured by PIERCE) was added to the respective wells at 250 μL to 300 μL/well, followed by incubation at room temperature for 5 to 10 minutes for blocking After the blocking reagent was discarded, the herbB3-GST fusion protein, the merbB3-GST fusion protein, the hD1/mD234 fusion protein, the hD12/mD34 fusion protein, and the hD123/mD4 fusion protein which were diluted at 5 μg/mL with Tris-buffered saline (hereinbelow, described as an “assay diluent”) containing 10% Block Ace® (manufactured by Dainippon Sumitomo Pharma Co., Ltd.) and 0.1% Tween 20 were added respectively to the plates of the respective antigens at 50 μL/well, and immobilized by incubation at room temperature for an hour.
# An absorbance at a wavelength of 450 nm (reference wavelength of 570 nm) was measured using a microplate reader (MTP-300; manufactured by CORONA […] Co., Ltd.).
# T1 sequence (Q61526 20-641): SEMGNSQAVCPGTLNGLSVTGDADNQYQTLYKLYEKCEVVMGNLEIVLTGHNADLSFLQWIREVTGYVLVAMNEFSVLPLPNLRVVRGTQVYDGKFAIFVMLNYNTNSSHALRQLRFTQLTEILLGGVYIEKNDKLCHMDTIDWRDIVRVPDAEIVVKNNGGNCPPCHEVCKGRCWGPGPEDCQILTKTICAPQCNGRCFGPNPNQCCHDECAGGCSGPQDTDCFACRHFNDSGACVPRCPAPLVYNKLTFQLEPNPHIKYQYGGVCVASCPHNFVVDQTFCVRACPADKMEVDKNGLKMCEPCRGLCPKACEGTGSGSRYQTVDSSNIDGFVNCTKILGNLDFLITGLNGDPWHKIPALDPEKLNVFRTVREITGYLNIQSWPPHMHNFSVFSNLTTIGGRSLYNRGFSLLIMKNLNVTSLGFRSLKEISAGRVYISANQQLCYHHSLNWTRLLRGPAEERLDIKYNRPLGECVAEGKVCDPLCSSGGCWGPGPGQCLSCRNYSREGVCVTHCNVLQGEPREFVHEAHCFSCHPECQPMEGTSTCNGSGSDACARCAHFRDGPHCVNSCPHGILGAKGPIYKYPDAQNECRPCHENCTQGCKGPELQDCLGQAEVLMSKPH
binder,measurement,value
B1,binding result,binds
